Here are results for ten molecules from patent US20250361308A1 (NEUROGENE, published 2025).

Where two headings read alike, the source gives them in different places.

For experiment [1], the target named is T1, huIL2Rβγ: Human IL-2 R gamma/CD132 Protein, Fc Tag (ILG-H5256) with Human IL-2 R beta/CD122 Protein, His Tag … (human, UniProt P31785 23-254; P14784 27-239).
T1 construct: IL-2Rγ-Fc sat on the sensor; IL-2Rβ-His was in solution at a concentration equimolar to or greater than the analyte; also called IL-2RBG; not shown: Fc tag of the bought reagent; His tag of the bought reagent
T1 sequence (looked up) 1: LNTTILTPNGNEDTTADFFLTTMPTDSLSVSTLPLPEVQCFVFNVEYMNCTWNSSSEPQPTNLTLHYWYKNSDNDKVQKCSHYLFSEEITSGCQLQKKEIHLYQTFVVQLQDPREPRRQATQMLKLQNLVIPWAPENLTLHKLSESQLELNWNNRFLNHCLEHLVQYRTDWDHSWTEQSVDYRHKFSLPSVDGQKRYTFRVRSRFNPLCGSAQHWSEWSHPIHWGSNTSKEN
T1 sequence (looked up) 2: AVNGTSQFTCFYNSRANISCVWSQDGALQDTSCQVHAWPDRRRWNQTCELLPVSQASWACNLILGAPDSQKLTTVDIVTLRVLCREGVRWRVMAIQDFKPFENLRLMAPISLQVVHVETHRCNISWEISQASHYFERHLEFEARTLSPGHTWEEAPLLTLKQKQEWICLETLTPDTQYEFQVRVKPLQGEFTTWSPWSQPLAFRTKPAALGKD
The experiment in a line: Octet BLI; IL-2Rγ-Fc on anti-human Fc sensors with IL-2Rβ-His in solution, 1:1 steady-state model.

Experiment [2] addresses T2, Human IL-2 R beta/CD122 Protein, Fc Tag (ILB-H5253) (human, UniProt P14784 27-239).
T2 construct: Bought protein, captured on anti-human Fc sensors; also called huIL2Rβ; IL-2Rβ; not shown: Fc tag of the bought reagent
T2 sequence (looked up): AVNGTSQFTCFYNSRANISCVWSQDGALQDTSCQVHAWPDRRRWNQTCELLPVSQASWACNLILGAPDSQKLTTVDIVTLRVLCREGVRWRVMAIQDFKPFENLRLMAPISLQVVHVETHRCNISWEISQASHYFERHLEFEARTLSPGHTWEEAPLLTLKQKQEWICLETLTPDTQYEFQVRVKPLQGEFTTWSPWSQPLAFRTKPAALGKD
The experiment in a line: Octet BLI; IL-2Rβ-Fc on anti-human Fc sensors, Neo-2/15 variant as analyte, 1:1 steady-state model.

Experiment [3] has as its target T2, Human IL-2 R beta/CD122 Protein, Fc Tag …. The description is as above. The source holds these as a separate data set.
Procedure: (§1) Binding data was collected in the Octet RED96 instrument and processed using the integrated Octet software. […] Anti-Human Fc Capture (AHC) sensors were equilibrated for 90s in 1× Cytiva HBS-EP+ Buffer 10 binding buffer. Sensors were loaded with receptor by mixing with wells containing 0.5 ug/ml aforementioned receptors until a threshold response reached 1.0 nm. Sensors were then baselined in binding buffer for 90s. After baseline measurement, the association kinetics (kon) were monitored by dipping the biosensors in wells containing analyte for 400s. […] Dissociation kinetics (koff) were monitored by dipping the biosensors in separate wells of binding buffer for 800s. The dissociation constant (Kd) was calculated using a 1:1 steady-state binding model with the Octet software.
The target of experiment [4] is T1, huIL2Rβγ: Human IL-2 R gamma/CD132 …. The experiment in a line: Octet BLI; IL-2Rγ-Fc on anti-human Fc sensors with IL-2Rβ-His in solution, 1:1 steady-state model. The source holds these as a separate data set.
Procedure: as §1
Experiment [5] has as its target T3, human CD122 and CD132 expressed on a HEK293 cell line (human, UniProt P14784 27-551; P31785 23-369).
T3 construct: whole, on cells; also called IL-2RBG; IL-2Rβγ on cells
T3 sequence (looked up) 1: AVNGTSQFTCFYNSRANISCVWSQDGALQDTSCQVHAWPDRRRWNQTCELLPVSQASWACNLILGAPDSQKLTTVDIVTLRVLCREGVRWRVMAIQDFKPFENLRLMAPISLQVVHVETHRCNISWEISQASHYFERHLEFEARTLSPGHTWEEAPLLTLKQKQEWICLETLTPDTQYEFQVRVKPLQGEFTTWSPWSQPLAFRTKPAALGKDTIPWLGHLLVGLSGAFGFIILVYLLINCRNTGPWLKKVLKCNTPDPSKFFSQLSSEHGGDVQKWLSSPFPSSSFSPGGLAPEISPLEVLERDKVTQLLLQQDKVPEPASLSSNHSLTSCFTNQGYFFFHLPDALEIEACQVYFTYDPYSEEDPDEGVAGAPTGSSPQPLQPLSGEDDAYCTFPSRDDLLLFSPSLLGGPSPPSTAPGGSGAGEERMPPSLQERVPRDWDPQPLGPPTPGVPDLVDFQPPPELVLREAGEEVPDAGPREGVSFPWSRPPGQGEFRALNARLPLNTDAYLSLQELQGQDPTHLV
T3 sequence (looked up) 2: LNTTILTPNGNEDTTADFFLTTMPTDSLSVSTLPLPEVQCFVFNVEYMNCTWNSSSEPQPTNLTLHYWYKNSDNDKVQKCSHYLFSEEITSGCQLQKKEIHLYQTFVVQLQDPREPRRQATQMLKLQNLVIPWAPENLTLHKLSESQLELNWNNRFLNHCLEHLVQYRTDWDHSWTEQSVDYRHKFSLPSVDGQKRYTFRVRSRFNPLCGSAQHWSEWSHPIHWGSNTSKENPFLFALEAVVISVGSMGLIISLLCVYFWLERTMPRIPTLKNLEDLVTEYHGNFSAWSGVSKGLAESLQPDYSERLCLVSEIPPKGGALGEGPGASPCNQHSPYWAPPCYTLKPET
The experiment in a line: flow cytometry saturation binding on HEK293 cells expressing human CD122 and CD132; apparent KD.
Procedure: Saturation binding studies were done using a HEK293 cell line expressing human CD122 and CD132. […] Cells were incubated for 30 minutes on ice, then pelleted and washed twice with cold PBS. […] After a 30-minute incubation on ice, the cells were pelleted and washed twice in cold PBS. […] The apparent dissociation constant (KD) was calculated using GraphPad Prism (GraphPad, San Diego, CA).

B1: Neo-2/15_D15A (designed binder)
chain: PKKKIQLHAEHALYAALMILNIVKTNSPPAEEKLEDYAFNFELILEEIARLFESGDQKDEAEKAKRMKEWMKRIKTTASEDEQEEMANAIITILQSWIFS
On to B1, for which the Kd turned out to be 230 nM in experiment [1] and 140 nM in experiment [2].

B2: Neo-2/15_Q95A (designed binder)
chain: PKKKIQLHAEHALYDALMILNIVKTNSPPAEEKLEDYAFNFELILEEIARLFESGDQKDEAEKAKRMKEWMKRIKTTASEDEQEEMANAIITILASWIFS
Take B2: the figures for the Kd in experiment [1] and in experiment [2] were 190 nM and 3 nM, respectively.

B3: Neo-2/15_H8A (designed binder)
chain: PKKKIQLAAEHALYDALMILNIVKTNSPPAEEKLEDYAFNFELILEEIARLFESGDQKDEAEKAKRMKEWMKRIKTTASEDEQEEMANAIITILQSWIFS
Take B3: the results for the Kd in experiment [3] and in experiment [4] were 1.4 nM and 11 nM, respectively.

B4: Neo-2/15_I44A (designed binder)
chain: PKKKIQLHAEHALYDALMILNIVKTNSPPAEEKLEDYAFNFELALEEIARLFESGDQKDEAEKAKRMKEWMKRIKTTASEDEQEEMANAIITILQSWIFS
On to B4, for which the Kd amounted to 58 nM in experiment [1] and 84 nM in experiment [2].

B5: Neo-2/15_Y14A (designed binder)
chain: PKKKIQLHAEHALADALMILNIVKTNSPPAEEKLEDYAFNFELILEEIARLFESGDQKDEAEKAKRMKEWMKRIKTTASEDEQEEMANAIITILQSWIFS
Regarding B5, the Kd in experiment [3] was 0.7 nM; in experiment [4], 10 to 20 nM.

B6: Neo-2/15_H11A (designed binder)
chain: PKKKIQLHAEAALYDALMILNIVKTNSPPAEEKLEDYAFNFELILEEIARLFESGDQKDEAEKAKRMKEWMKRIKTTASEDEQEEMANAIITILQSWIFS
As for B6, the Kd in experiment [3] came out at 3.3 nM; in experiment [4] it was 15 nM.

B7: Neo-2/15_N40A (designed binder)
chain: PKKKIQLHAEHALYDALMILNIVKTNSPPAEEKLEDYAFAFELILEEIARLFESGDQKDEAEKAKRMKEWMKRIKTTASEDEQEEMANAIITILQSWIFS
As for B7, the Kd in experiment [1] stood at 44 nM; in experiment [2], 60 nM.

B8: C terminal anti-CD25 full-length Ab fusion with Neo-2/15_D15S_Q95E (TRA comprising SEQ ID NO: 69 and 70) (other)
heavy: QVQLVQSGAEVKKPGSSVKVSCKASGYTFTSYRMHWVRQAPGQGLEWIGYINPSTGYTEYNQKFKDKATITADESTNTAYMELSSLRSEDTAVYYCARGGGVFDYWGQGTLVTVSSASTKGPSVFPLAPSSKSTSGGTAALGCLVKDYFPEPVTVSWNSGALTSGVHTFPAVLQSSGLYSLSSVVTVPSSSLGTQTYICNVNHKPSNTKVDKKVEPKSCDKTHTCPPCPAPEAAGAPSVFLFPPKPKDTLMISRTPEVTCVVVDVSHEDPEVKFNWYVDGVEVHNAKTKPREEQYNSTYRVVSVLTVLHQDWLNGKEYKCKVSNKALPAPIEKTISKAKGQPREPQVYTLPPSREEMTKNQVSLTCLVKGFYPSDIAVEWESNGQPENNYKTTPPVLDSDGSFFLYSKLTVDKSRWQQGNVFSCSVMHEALHNHYTQKSLSLSPGKGGGGSGGGGSGGGGSPKKKIQLHAEHALYSALMILNIVKTNSPPAEEKLEDYAFNFELILEEIARLFESGDQKDEAEKAKRMKEWMKRIKTTASEDEQEEMANAIITILESWIFS
light: DIQMTQSPSTLSASVGDRVTITCSASSSISYMHWYQQKPGKAPKLLIYTTSNLASGVPARFSGSGSGTEFTLTISSLQPDDFATYYCHQRSTYPLTFGQGTKVEVKRTVAAPSVFIFPPSDEQLKSGTASVVCLLNNFYPREAKVQWKVDNALQSGNSQESVTEQDSKDSTYSLSSTLTLSKADYEKHKVYACEVTHQGLSSPVTKSFNRGEC
notes: also called distal fused TRA
Consider B8, for which the Kd in experiment [5] was 131 nM.

B9: N terminal anti-CD25 full-length Ab fusion with Neo-2/15_D15S_Q95E (other)
heavy: GSPKKKIQLHAEHALYSALMILNIVKTNSPPAEEKLEDYAFNFELILEEIARLFESGDQKDEAEKAKRMKEWMKRIKTTASEDEQEEMANAIITILESWIFSGGGGSGGGGSGGGGSQVQLVQSGAEVKKPGSSVKVSCKASGYTFTSYRMHWVRQAPGQGLEWIGYINPSTGYTEYNQKFKDKATITADESTNTAYMELSSLRSEDTAVYYCARGGGVFDYWGQGTLVTVSSASTKGPSVFPLAPSSKSTSGGTAALGCLVKDYFPEPVTVSWNSGALTSGVHTFPAVLQSSGLYSLSSVVTVPSSSLGTQTYICNVNHKPSNTKVDKKVEPKSCDKTHTCPPCPAPEAAGAPSVFLFPPKPKDTLMISRTPEVTCVVVDVSHEDPEVKFNWYVDGVEVHNAKTKPREEQYNSTYRVVSVLTVLHQDWLNGKEYKCKVSNKALPAPIEKTISKAKGQPREPQVYTLPPSREEMTKNQVSLTCLVKGFYPSDIAVEWESNGQPENNYKTTPPVLDSDGSFFLYSKLTVDKSRWQQGNVFSCSVMHEALHNHYTQKSLSLSPGK
light: DIQMTQSPSTLSASVGDRVTITCSASSSISYMHWYQQKPGKAPKLLIYTTSNLASGVPARFSGSGSGTEFTLTISSLQPDDFATYYCHQRSTYPLTFGQGTKVEVKRTVAAPSVFIFPPSDEQLKSGTASVVCLLNNFYPREAKVQWKVDNALQSGNSQESVTEQDSKDSTYSLSSTLTLSKADYEKHKVYACEVTHQGLSSPVTKSFNRGEC
Consider B9, for which the Kd in experiment [5] came out at 82 nM.

B10: N terminal anti-CD25 full-length Ab fusion with Neo-2/15_N40S_I44S_Q95E (TRA comprising SEQ ID NO: 74 and 70) (other)
heavy: GSPKKKIQLHAEHALYDALMILNIVKTNSPPAEEKLEDYAFSFELSLEEIARLFESGDQKDEAEKAKRMKEWMKRIKTTASEDEQEEMANAIITILESWIFSGGGGSGGGGSGGGGSQVQLVQSGAEVKKPGSSVKVSCKASGYTFTSYRMHWVRQAPGQGLEWIGYINPSTGYTEYNQKFKDKATITADESTNTAYMELSSLRSEDTAVYYCARGGGVFDYWGQGTLVTVSSASTKGPSVFPLAPSSKSTSGGTAALGCLVKDYFPEPVTVSWNSGALTSGVHTFPAVLQSSGLYSLSSVVTVPSSSLGTQTYICNVNHKPSNTKVDKKVEPKSCDKTHTCPPCPAPEAAGAPSVFLFPPKPKDTLMISRTPEVTCVVVDVSHEDPEVKFNWYVDGVEVHNAKTKPREEQYNSTYRVVSVLTVLHQDWLNGKEYKCKVSNKALPAPIEKTISKAKGQPREPQVYTLPPSREEMTKNQVSLTCLVKGFYPSDIAVEWESNGQPENNYKTTPPVLDSDGSFFLYSKLTVDKSRWQQGNVFSCSVMHEALHNHYTQKSLSLSPGK
light: DIQMTQSPSTLSASVGDRVTITCSASSSISYMHWYQQKPGKAPKLLIYTTSNLASGVPARFSGSGSGTEFTLTISSLQPDDFATYYCHQRSTYPLTFGQGTKVEVKRTVAAPSVFIFPPSDEQLKSGTASVVCLLNNFYPREAKVQWKVDNALQSGNSQESVTEQDSKDSTYSLSSTLTLSKADYEKHKVYACEVTHQGLSSPVTKSFNRGEC
notes: also called proximal fused TRA
For B10, in experiment [5], the Kd stood at 131 nM.
